Laboratory results published in patent publication US20210040232A1 (Regeneron, published 2021).

T1: soluble Macaca fascicularis CTLA-4 expressed with a C-terminal myc-myc-polyhistidine tag (Macaca fascicularis)
T1 construct: soluble protein; also called mf CTLA-4.mmh; mfCTLA4.mmh
T1 chain: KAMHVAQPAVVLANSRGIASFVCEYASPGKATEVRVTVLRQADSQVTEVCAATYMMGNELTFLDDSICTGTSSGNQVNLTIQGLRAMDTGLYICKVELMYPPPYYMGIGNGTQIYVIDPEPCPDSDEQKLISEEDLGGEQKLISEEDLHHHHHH


What was measured:
[1] = target: T2, recombinant hCTLA-4-mFc (human CTLA-4 extracellular domain with a C-terminal Fc portion of mouse IgG2a) (human); assay: competition ELISA, 200 pM hCTLA-4-mFc on plate-coated hB7-1-hIgG1-6His
T2 construct: also called dimeric CTLA-4 protein
T2 sequence (chain, as listed by the source limits assumed): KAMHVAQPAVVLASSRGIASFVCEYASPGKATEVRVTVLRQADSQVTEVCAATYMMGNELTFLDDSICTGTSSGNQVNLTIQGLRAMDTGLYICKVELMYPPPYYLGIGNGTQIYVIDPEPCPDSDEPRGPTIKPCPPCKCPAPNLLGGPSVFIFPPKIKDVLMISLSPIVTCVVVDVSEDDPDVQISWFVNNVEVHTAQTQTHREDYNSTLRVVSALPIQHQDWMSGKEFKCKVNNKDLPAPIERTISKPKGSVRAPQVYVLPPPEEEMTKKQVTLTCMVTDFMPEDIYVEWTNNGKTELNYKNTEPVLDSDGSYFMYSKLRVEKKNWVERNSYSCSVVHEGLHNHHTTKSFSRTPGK

[2] = target: T3, human CTLA-4 (amino acids M1-N223) on stably transfected VI-fibroblast cells (human, UniProt P16410 36-223); assay: ECL cell binding, VI-fibroblast/hCTLA-4 cells;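 note: antibodies bound to the cells on carbon electrode plates, detected via SULFO-TAG anti-IgG secondary (1 h, RT), electrochemiluminescence read as RLU over a concentration range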
T3 construct: also called VI-fibroblast/hCTLA-4
T3 sequence (P16410 36-223 limits assumed): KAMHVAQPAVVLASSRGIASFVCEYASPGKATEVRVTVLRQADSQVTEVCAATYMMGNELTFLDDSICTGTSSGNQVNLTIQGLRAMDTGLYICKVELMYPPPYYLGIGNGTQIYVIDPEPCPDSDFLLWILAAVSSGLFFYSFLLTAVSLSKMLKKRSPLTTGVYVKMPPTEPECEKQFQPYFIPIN

[3] = target: T2, recombinant hCTLA-4-mFc (human CTLA-4 …); assay: competition ELISA, 400 pM hCTLA-4-mFc on plate-coated hB7-2-hIgG1-6His
[4] = target: T1, soluble Macaca fascicularis CTLA-4 …; assay: SPR, mAb capture, 25 C
[5] = target: T4, soluble human CTLA-4 expressed with a C-terminal myc-myc-polyhistidine tag (human); assay: SPR, mAb capture, 25 C
T4 construct: soluble protein; also called hCTLA-4.mmh; hCTLA4.mmh

% Blockade [1] | IC50 [1] | EC50 [2] | ratio of RLU signal to parental VI-fibroblast at 0.4 nM Ab [2] | % Blockade [3] | IC50 [3] | Kd [4] | koff [4] | kon [4] | t1/2 [4] | Kd [5] | koff [5] | kon [5] | t1/2 [5] | Binder
99% | 0.11 nM | 1.3 nM | 15 ratio | 100% | 0.2 nM | 0.964 nM | 0.000309 s⁻¹ | 320000 M⁻¹ s⁻¹ | 37.4 min | 1.03 nM | 0.000346 s⁻¹ | 337000 M⁻¹ s⁻¹ | 33.4 min | H1H19280P (antibody, human IgG1, V domains shown) VH: QLQLQESGPGLVKPSETLSLTCIVSGGSTSSNTYYWGWIRQPPGKGLEWIGTIHYSGNPYYDPSLKSRVTISVDTSKNHFSLKLNSVTAADTAVYYCTRQYINFFDFWGQGTLVTVSS VL: EIVLTQSPATLSLSPGERVTLSCRASQSISRYLAWYQQKPGQAPRVLIYDASNRATDIPARFSGSGSGTDFTLTISSLEPEDFAVYYCQQRSNWPITFGQGTRLEIK
96% | 9.7 nM | 0.79 nM | 7 ratio | 99% | 1.2 nM | 3.11 nM | 0.000683 s⁻¹ | 220000 M⁻¹ s⁻¹ | 16.9 min | 3.75 nM | 0.000828 s⁻¹ | 221000 M⁻¹ s⁻¹ | 14 min | H1H19283P (antibody, human IgG1, V domains shown) VH: QVQLVESGGGLVKPGGSLRLSCAASGFTFSDYYMTWIRQAPGKGLEWVSYISSSGGNIFYADSVKGRFTISRDNAKNSLYLQMNSLRGEDTAVYYCARGLEPYHYYYGMDVWGQGTTVTVSS VL: not shown
99% | 0.32 nM | 0.22 nM | 19 ratio | 100% | 0.54 nM | 6.11 nM | 0.00101 s⁻¹ | 166000 M⁻¹ s⁻¹ | 11.4 min | 2.25 nM | 0.000402 s⁻¹ | 179000 M⁻¹ s⁻¹ | 28.8 min | H1H19278P (antibody, human IgG1, V domains shown) VH: QVQLVESGGGVVQPGRSLRLSCAASGFTFSSYGMNWVRQAPGKGLEWVAVTWYDGSNKHYADSVKGRFTISRDNSKNTLYLQMYSLRAEDTAMYYCVRGGHLGAFDIWGQGTMVTVSS VL: EIVLTQSPGTLSLSPGERATLSCRASQSVSSYLAWYQQKPGQAPRLLIYGASSRATGIPDRFSGGGSGTDFTLTISRLEPEDFAVYYCQQYGSSPFTFGPGTKVDIK
8% |  |  |  | 43% |  | 20.3 nM | 0.000994 s⁻¹ | 49000 M⁻¹ s⁻¹ | 11.6 min | 12.1 nM | 0.000731 s⁻¹ | 60400 M⁻¹ s⁻¹ | 15.8 min | H1H19264P (antibody, human IgG1, V domains shown) VH: QVQLVQSGAEVKKPGASVKVSCKASDYTFTSYGISWVRQAPGQGLEWMGWISVYNGNINYAQKFKGRVTMTTDTSTSTAYMELRSLRSDDMAVYYCARVTQFGMDVWGQGTTVTVSS VL: DIQMTQSPSSLSASVGDRVTITCRASQSISSNLNWYQQNPGKAPKLLIYTTSSLQGGVPSRFSGSGSGTDFTLTISSLQPEDFATYYCQQSFRTPFTFGPGTKVDIK

Further lines, the binder ahead of its results:

Binder | % Blockade [1] | IC50 [1] | EC50 [2] | ratio of RLU signal to parental VI-fibroblast at 0.4 nM Ab [2] | % Blockade [3] | IC50 [3] | Kd [4] | koff [4] | kon [4] | t1/2 [4] | Kd [5] | koff [5] | kon [5] | t1/2 [5]
H1H19307P (antibody, human IgG1, V domains shown) VH: EVQLVESGGGLVQPGGSLRLACAASGFTFSDYYMDWVRQVPGKGLEWVGRSRDKANSFTTEYVASVKGRFTISREDSKNSVYLQMNSLKTEDTAVYYCARTNYDFSLDVWGQGTTVTVSS VL: DIQMTQSPSSLSASVGDRVTITCRASQDINNYLAWFQQKPGNAPKSLIYAASSLQSGVPSKFSGSGSGTDFTLTISSLQPEDFATYYCQQYSTYPITFGQGTRLEIK | 99% | 0.18 nM | 3.7 nM | 7 ratio | 99% | 0.29 nM | 1.4 nM | 0.000292 s⁻¹ | 209000 M⁻¹ s⁻¹ | 39.5 min | 1.31 nM | 0.000284 s⁻¹ | 217000 M⁻¹ s⁻¹ | 40.6 min
H1H19314P2 (antibody, human IgG1, V domains shown) VH: QVQLVQSGAEVKKPGASVKVSCKASGYTLSSYGISWVRQAPGQGLEWMGWISAYNGNTNYAQKLQGRLTMTTDTSTSTAYMELRSLRSDDTAVYYCSRDGPFKISFFGMDVWGQGTTVTVSS VL: not shown | 0% |  | 3.4 nM | 8 ratio | 7% |  | 8.57 nM | 0.000913 s⁻¹ | 107000 M⁻¹ s⁻¹ | 12.6 min | 9.87 nM | 0.00113 s⁻¹ | 115000 M⁻¹ s⁻¹ | 10.2 min
H1H19274P (antibody, human IgG1, V domains shown) VH: QVQLQESGPGLVKPSETLSLTCTVSGGSINSYYWTWIRQPPGKGLEWIGYVYYSGSTTYNPSLKSRVTISVDTSKNQFFLNLNSVTAAETAVYYCARGTLGYYGMDVWGQGTTVTVSS VL: EIVLTQSPGTLSLSPGERATLSCRASQSFSNNYLAWYQQKPGQAPRLLIYGTSIRATGIPDRFSGSGSGTDFTLAISRLEPEDFAVYYCQQYGRSPLTFGGGTKVEIK | 99% | 0.13 nM | 0.39 nM | 18 ratio | 100% | 0.25 nM | 0.887 nM | 0.000463 s⁻¹ | 522000 M⁻¹ s⁻¹ | 25 min | 1.43 nM | 0.00076 s⁻¹ | 530000 M⁻¹ s⁻¹ | 15.2 min
H1H19279P (antibody, human IgG1, V domains shown) VH: QVQLVQSGAEVKKPGASVKVSCKASGYTFTDYYIHWVRQAPGQGLEWMGWINPNNGVSNYAQKFQGRVTMTRDTSISTAYMDLIRLRSDDTAVYYCARERASWDYNGVDVWGQGTTVTVSS VL: not shown | 97% | 0.21 nM | 0.24 nM | 18 ratio | 100% | 0.22 nM | 0.763 nM | 0.000259 s⁻¹ | 340000 M⁻¹ s⁻¹ | 44.6 min | 0.752 nM | 0.000261 s⁻¹ | 346000 M⁻¹ s⁻¹ | 44.3 min
H1H19312P (antibody, human IgG1, V domains shown) VH: QVQLQESGPGLVKPSETLSLTCTVSGGSISSYHWSWIRQPLGKGLEWIGYIYYSGSTNYNPSLKSRVTISVDTSKNQFSLKLSSVTAADTAVYYCARGGSSIWPFDYWGQGTLVTVSS VL: DIQMTQSPSTLSASVGDRVTITCRASQSISSWLAWYQQKSGKAPKLLISKASTLESGVPSRFSGSGSGTEFTLTISSLQPDDFATYYCQQYNIYSWTFGQGTKVEIK | 97% | 0.2 nM | 0.7 nM | 14 ratio | 99% | 0.51 nM | 2.28 nM | 0.00076 s⁻¹ | 333000 M⁻¹ s⁻¹ | 15.2 min | 3.29 nM | 0.00105 s⁻¹ | 320000 M⁻¹ s⁻¹ | 11 min
H1H19305P (antibody, human IgG1, V domains shown) VH: QVQLQESGPGLVKPSQTLSLTCTVSGGSITSGGYYWSWIRQHPGKGLEWIGYIFYSGITNYNPSLKSRVTISVDTSKNQFSLKLTSVTAADTAVYYCATYNSLRLYYGMDVWGQGTTVTVSS VL: DVVMTQSPLSLPVILGQPASISCRSSQSLVYGDGNTYLNWFQQRPGQSPRRLIYKVSNRDSGVPDRFSGSGSGTDFTLKISRVEAEDVGVYYCMQSTHWPLTFGGGTKVEIK | 98% | 0.19 nM | 0.84 nM |  | 99% | 0.36 nM |  |  |  |  | 4.19 nM |  |  | 9.5 min
